Measured values taken from patent publication EP1481685A1.
Like-named read-outs stand apart in the source and are kept apart here.

Tests used:
Experiment in all cases: cell-based or functional assay
[1] = target: adenylyl cyclase (AC) in rat spinal cord lysates / membranes (major isoforms AC type 5 and 6)
[2] = target: adenylyl cyclase (AC) in rat dorsal root ganglia (DRG) lysates (predominant isoforms AC type 4 and 6)
[3] = target: adenylyl cyclase (AC) in rat spinal cord lysates / membranes (major isoforms AC type 5 and 6); remark: listed apart in the source

## PAM (Protein Associated with Myc), full length, purified from HeLa cells (from UniProt O75592 1-4678)
[1]
  inhibition of Gαs-stimulated AC activity, spinal cord lysates of control animals, 30 nM PAM (% inhibition at 30 nM): 50
[2]
  inhibition of Gαs-stimulated AC activity, DRG lysates, 30 nM PAM (% inhibition at 30 nM): 32
[3]
  inhibition of Gαs-stimulated AC activity, spinal cord lysates from animals treated 1 hour with formalin, 30 nM PAM (% inhibition at 30 nM): 25
  inhibition of Gαs-stimulated AC activity, spinal cord lysates from rats 96 hours after zymosan injection, 30 nM PAM (% inhibition at 30 nM): 70
  inhibition of Gαs-stimulated AC activity, spinal cord lysates of control animals, 30 nM PAM (% inhibition at 30 nM): 49
  inhibition of Gαs-stimulated AC activity, spinal cord preparations of zymosan-treated animals: 75 % inhibition
